Experimental data: PMC2921123 (2010)

Legend:
Test in all cases: SPR
[1] = target: human Igαβ heterodimer, extracellular domains fused with a leucine zipper (Igαβ-LZ) (human) (UniProt P11912)
[2] = target: Fc portion of a human BCR μ-chain (Fcμ, amino acid residues 258-586), corresponding to Cμ2-Cμ4 (human)
Fcμ Fc = target: T1, Fcμ Fc (Homo sapiens, UniProt P01871)
T1 chain: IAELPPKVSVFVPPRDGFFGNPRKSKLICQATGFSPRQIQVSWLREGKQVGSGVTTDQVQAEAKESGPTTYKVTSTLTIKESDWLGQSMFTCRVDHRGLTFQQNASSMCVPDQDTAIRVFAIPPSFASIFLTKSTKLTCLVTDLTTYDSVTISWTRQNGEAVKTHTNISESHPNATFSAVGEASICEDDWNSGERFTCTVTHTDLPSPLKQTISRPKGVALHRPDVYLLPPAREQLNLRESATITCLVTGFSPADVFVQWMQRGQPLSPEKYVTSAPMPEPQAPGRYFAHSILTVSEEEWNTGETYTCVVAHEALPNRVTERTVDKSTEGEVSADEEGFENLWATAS

Fc portion of a human BCR μ-chain (Fcμ, amino acid residues 258-586), corresponding to Cμ2-Cμ4 (human), sequence (P01871 whole entry, the tested form may be a part): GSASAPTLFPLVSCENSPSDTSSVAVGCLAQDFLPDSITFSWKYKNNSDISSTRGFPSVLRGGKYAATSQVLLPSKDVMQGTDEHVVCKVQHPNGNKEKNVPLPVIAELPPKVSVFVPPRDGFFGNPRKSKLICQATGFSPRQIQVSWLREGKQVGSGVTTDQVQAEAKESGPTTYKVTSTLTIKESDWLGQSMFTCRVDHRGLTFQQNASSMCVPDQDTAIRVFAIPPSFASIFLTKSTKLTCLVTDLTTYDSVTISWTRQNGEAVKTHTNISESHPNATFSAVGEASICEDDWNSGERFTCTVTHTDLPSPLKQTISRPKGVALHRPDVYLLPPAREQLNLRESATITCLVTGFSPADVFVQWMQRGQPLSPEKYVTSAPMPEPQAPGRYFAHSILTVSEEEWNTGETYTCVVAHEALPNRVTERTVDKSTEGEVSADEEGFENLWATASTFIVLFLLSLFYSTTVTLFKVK

human IgM (from UniProt P01591 23-159) (antibody)
Kd [1]: > 10 µM

human Igα extracellular portion, N60A (α3) (from UniProt P11912 33-143) (domain or fragment)
fold increase of binding against the wild type [2]: 2 fold

human Igβ extracellular portion, Q123A/Q124A/K125A (β4) (from UniProt P40259 26-159) (domain or fragment)
fold reduction of binding against the wild type [2]: 2 fold

human Igβ extracellular portion, R55A/K56A/R57A (β1) (from UniProt P40259 26-159) (domain or fragment)
fold reduction of binding against the wild type [2]: 6 fold

B1: Igαβ (protein)
chain 1: LWMHKVPASLMVSLGEDAHFQCPHNSSNNANVTWWRVLHGNYTWPPEFLGPGEDPNGTLIIQNVNKSHGGIYVCRVQEGNESYQQSCGTYLRVRQPPPRPFLDMGEGTKNRIITAEGIILLFCAVVPGTLLLFRKRWQNEKLGLDAGDEYEDENLYEGLNLDDCSMYEDISRGLQGTYQDVGSLNIGDVQLEKP
chain 2: ARSEDRYRNPKGSACSRIWQSPRFIARKRGFTVKMHCYMNSASGNVSWLWKQEMDENPQQLKLEKGRMEESQNESLATLTIQGIRFEDNGIYFCQQKCNNTSEVYQGCGTELRVMGFSTLAQLKQRNTLKDGIIMIQTLLIILFIIVPIFLLLDKDDSKAGMEEDHTYEGLDIDQTATYEDIVTLRTGEVKWSVGEHPGQE
Kd (Fcμ Fc): ~2000 nM
